Data from the supplement of paper PMC9112550, “Optimization of the antimicrobial peptide Bac7 by deep mutational scanning” (BMC Biology, 2022).

system: Escherichia coli TOP10; test: shrunken log2 fold change of peptide-encoding DNA abundance (4.5 h post-induction vs induction); higher = less antimicrobial activity (less host growth inhibition); conditions: time post-induction: 4.5 h; library: site-saturation at positions 5, 18, 19, 20
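Note: peptides expressed intracellularly from a pBAD plasmid library in pooled LB shake-flask culture, induced with 0.3% L-arabinose, DNA abundance read by NGS, three biological replicates, DESeq2 with apeglm shrinkage.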

| Sequence | shrunken log2 fold change |
| --- | --- |
| RRIRMRPPRLPRPRPRPNDTPRP | 0.11 |
| RRIRLRPPRLPRPRPRPWLEPRP | -0.212 |
| RRIRYRPPRLPRPRPRPPKRPRP | -0.121 |
| RRIRMRPPRLPRPRPRPKACPRP | 0.558 |
| RRIRARPPRLPRPRPRPMRPPRP | 0.342 |
| RRIRLRPPRLPRPRPRPRGHPRP | 0.078 |
| RRIRVRPPRLPRPRPRPNGLPRP | -0.0536 |
| RRIRERPPRLPRPRPRPNHNPRP | -0.418 |
| RRIRGRPPRLPRPRPRPMDSPRP | 0.318 |
| RRIRNRPPRLPRPRPRPSSSPRP | -0.0202 |
| RRIRFRPPRLPRPRPRPTQAPRP | 0.442 |
| RRIRARPPRLPRPRPRPWENPRP | 0.0143 |
| RRIRDRPPRLPRPRPRPAAQPRP | 1.65 |
| RRIRRRPPRLPRPRPRPDLTPRP | 0.521 |
| RRIRVRPPRLPRPRPRPDMWPRP | -0.499 |
| RRIRIRPPRLPRPRPRPPDCPRP | -0.0639 |
| RRIRARPPRLPRPRPRPGKPPRP | 0.154 |
| RRIRDRPPRLPRPRPRPQTNPRP | 0.118 |
| RRIRWRPPRLPRPRPRPDSDPRP | 0.0473 |
| RRIRARPPRLPRPRPRPMYDPRP | 0.15 |
| RRIRLRPPRLPRPRPRPGPAPRP | 0.972 |
| RRIRHRPPRLPRPRPRPPQNPRP | 0.613 |
| RRIRIRPPRLPRPRPRPQQAPRP | 0.0151 |
| RRIRCRPPRLPRPRPRPNNPPRP | -0.681 |
| RRIRWRPPRLPRPRPRPSQCPRP | 0.0963 |

| Sequence | shrunken log2 fold change |
| --- | --- |
| RRIRNRPPRLPRPRPRPIHVPRP | -0.224 |
| RRIRWRPPRLPRPRPRPFECPRP | -0.01 |
| RRIRMRPPRLPRPRPRPKLVPRP | 0.115 |
| RRIRSRPPRLPRPRPRPWTMPRP | 0.0795 |
| RRIRPRPPRLPRPRPRPWAMPRP | -0.223 |
| RRIRNRPPRLPRPRPRPVYFPRP | -0.301 |
| RRIRWRPPRLPRPRPRPCWLPRP | -0.119 |
| RRIRERPPRLPRPRPRPDEFPRP | 0.0332 |
| RRIRFRPPRLPRPRPRPLTPPRP | 0.0478 |
| RRIRQRPPRLPRPRPRPQYAPRP | -0.176 |
| RRIRNRPPRLPRPRPRPGHSPRP | -0.152 |
| RRIRTRPPRLPRPRPRPRYRPRP | -0.0728 |
| RRIRFRPPRLPRPRPRPDLPPRP | -0.0804 |
| RRIRDRPPRLPRPRPRPALAPRP | 1.32 |
| RRIRMRPPRLPRPRPRPCGNPRP | 0.137 |
| RRIRPRPPRLPRPRPRPQSPPRP | 0.0713 |
| RRIRMRPPRLPRPRPRPTMIPRP | -0.185 |
| RRIRLRPPRLPRPRPRPKCQPRP | -0.319 |
| RRIRNRPPRLPRPRPRPQYRPRP | 0.576 |
| RRIRVRPPRLPRPRPRPPGEPRP | 0.511 |
| RRIRMRPPRLPRPRPRPTKRPRP | 0.901 |
| RRIRMRPPRLPRPRPRPFDHPRP | -0.00544 |
| RRIRCRPPRLPRPRPRPPAVPRP | 0.645 |
| RRIRTRPPRLPRPRPRPKEYPRP | -1.07 |
| RRIRMRPPRLPRPRPRPKMCPRP | 0.0261 |

| Sequence | shrunken log2 fold change |
| --- | --- |
| RRIRYRPPRLPRPRPRPGPQPRP | -0.151 |
| RRIRARPPRLPRPRPRPMSAPRP | 0.361 |
| RRIRFRPPRLPRPRPRPKTDPRP | -0.0282 |
| RRIRTRPPRLPRPRPRPSYQPRP | -0.18 |
| RRIRNRPPRLPRPRPRPFEFPRP | -0.0681 |
| RRIRVRPPRLPRPRPRPNEHPRP | -0.00876 |
| RRIRVRPPRLPRPRPRPPWYPRP | 0.0253 |
| RRIRNRPPRLPRPRPRPTKSPRP | 0.141 |
| RRIRDRPPRLPRPRPRPVKNPRP | -0.0293 |
| RRIRPRPPRLPRPRPRPEEHPRP | -0.0242 |
| RRIRWRPPRLPRPRPRPWKEPRP | 0.162 |
| RRIRRRPPRLPRPRPRPGTDPRP | 0.0719 |
| RRIRTRPPRLPRPRPRPKRMPRP | -0.157 |
| RRIRFRPPRLPRPRPRPAWSPRP | 0.116 |
| RRIRGRPPRLPRPRPRPIPPPRP | 0.548 |
| RRIRGRPPRLPRPRPRPSGNPRP | 0.18 |
| RRIRFRPPRLPRPRPRPYTWPRP | -1.05 |
| RRIRFRPPRLPRPRPRPVRYPRP | -0.0423 |
| RRIRGRPPRLPRPRPRPHQPPRP | 0.18 |
| RRIRIRPPRLPRPRPRPRVMPRP | 0.0377 |
| RRIRWRPPRLPRPRPRPSTMPRP | -0.284 |
| RRIRARPPRLPRPRPRPIKVPRP | -0.104 |
| RRIRSRPPRLPRPRPRPNLIPRP | -0.74 |
| RRIRRRPPRLPRPRPRPNQIPRP | -0.349 |
| RRIRYRPPRLPRPRPRPPSKPRP | -0.409 |

| Sequence | shrunken log2 fold change |
| --- | --- |
| RRIRSRPPRLPRPRPRPEAPPRP | 0.67 |
| RRIRMRPPRLPRPRPRPGEAPRP | 2.18 |
| RRIRQRPPRLPRPRPRPNDLPRP | -0.0128 |
| RRIRLRPPRLPRPRPRPFHCPRP | -0.0953 |
| RRIRQRPPRLPRPRPRPTSIPRP | -0.18 |
| RRIRIRPPRLPRPRPRPQMLPRP | -0.633 |
| RRIRMRPPRLPRPRPRPFLSPRP | -0.0215 |
| RRIRERPPRLPRPRPRPDKPPRP | -0.051 |
| RRIRIRPPRLPRPRPRPWLYPRP | -0.0424 |
| RRIRDRPPRLPRPRPRPFDKPRP | -0.0665 |
| RRIRDRPPRLPRPRPRPCSCPRP | 0.173 |
| RRIRVRPPRLPRPRPRPYEPPRP | -1.29 |
| RRIRWRPPRLPRPRPRPFGGPRP | 0.0764 |
| RRIRCRPPRLPRPRPRPRLCPRP | 0.427 |
| RRIRGRPPRLPRPRPRPDHYPRP | -0.203 |
| RRIRRRPPRLPRPRPRPTTYPRP | -0.221 |
| RRIRPRPPRLPRPRPRPTKPPRP | 0.323 |
| RRIRDRPPRLPRPRPRPSTKPRP | 0.116 |
| RRIRCRPPRLPRPRPRPKLAPRP | 0.551 |
| RRIRPRPPRLPRPRPRPQFAPRP | 0.218 |
| RRIRMRPPRLPRPRPRPMTHPRP | 0.173 |
| RRIRMRPPRLPRPRPRPMENPRP | 0.76 |
| RRIRLRPPRLPRPRPRPANVPRP | -0.304 |
| RRIRKRPPRLPRPRPRPMWGPRP | -0.0954 |
| RRIRPRPPRLPRPRPRPPCTPRP | 0.00476 |

| Sequence | shrunken log2 fold change |
| --- | --- |
| RRIRWRPPRLPRPRPRPSQIPRP | -0.165 |
| RRIRDRPPRLPRPRPRPPEKPRP | 0.106 |
| RRIRKRPPRLPRPRPRPKPKPRP | 0.464 |
| RRIRARPPRLPRPRPRPKQCPRP | 0.123 |
| RRIRLRPPRLPRPRPRPLNIPRP | -0.221 |
| RRIRKRPPRLPRPRPRPAECPRP | 0.33 |
| RRIRGRPPRLPRPRPRPHELPRP | 0.871 |
| RRIRNRPPRLPRPRPRPHQIPRP | -0.247 |
| RRIRVRPPRLPRPRPRPEKGPRP | -0.09 |
| RRIRIRPPRLPRPRPRPYPEPRP | -0.0522 |
| RRIRFRPPRLPRPRPRPTDAPRP | 0.00734 |
| RRIRMRPPRLPRPRPRPCLTPRP | 0.000866 |
| RRIRARPPRLPRPRPRPKKIPRP | 0.489 |
| RRIRMRPPRLPRPRPRPEQRPRP | 2.55 |
| RRIRHRPPRLPRPRPRPGWLPRP | 0.0986 |
| RRIRTRPPRLPRPRPRPGSDPRP | 0.424 |
| RRIRQRPPRLPRPRPRPGEGPRP | 0.00168 |
| RRIRERPPRLPRPRPRPKSDPRP | -0.0784 |
| RRIRHRPPRLPRPRPRPSPEPRP | -0.0554 |
| RRIRPRPPRLPRPRPRPPRNPRP | 0.315 |
| RRIRWRPPRLPRPRPRPQVEPRP | -0.00667 |
| RRIRNRPPRLPRPRPRPEAMPRP | 0.616 |
| RRIRIRPPRLPRPRPRPSYRPRP | -0.0544 |
| RRIRYRPPRLPRPRPRPDSVPRP | -0.338 |
| RRIRNRPPRLPRPRPRPPPHPRP | 0.794 |

| Sequence | shrunken log2 fold change |
| --- | --- |
| RRIRRRPPRLPRPRPRPWKCPRP | -0.0487 |
| RRIRYRPPRLPRPRPRPWIMPRP | -0.253 |
| RRIRIRPPRLPRPRPRPFFKPRP | -0.629 |
| RRIRERPPRLPRPRPRPDSQPRP | -0.0262 |
| RRIRWRPPRLPRPRPRPQIEPRP | 0.0601 |
| RRIRGRPPRLPRPRPRPKKEPRP | 0.042 |
| RRIRVRPPRLPRPRPRPYRPPRP | -0.462 |
| RRIRTRPPRLPRPRPRPGGIPRP | 0.0232 |
| RRIRHRPPRLPRPRPRPTIYPRP | -0.254 |
| RRIRVRPPRLPRPRPRPWSNPRP | -0.0426 |
| RRIRYRPPRLPRPRPRPNFAPRP | 0.137 |
| RRIRHRPPRLPRPRPRPCFMPRP | -0.404 |
| RRIRTRPPRLPRPRPRPVCEPRP | 0.243 |
| RRIRSRPPRLPRPRPRPKDRPRP | 0.201 |
| RRIRSRPPRLPRPRPRPCQEPRP | -0.0101 |
| RRIRIRPPRLPRPRPRPRTHPRP | -0.372 |
| RRIRERPPRLPRPRPRPQFEPRP | -0.0369 |
| RRIRRRPPRLPRPRPRPNEQPRP | 0.324 |
| RRIRYRPPRLPRPRPRPGLYPRP | -0.486 |
| RRIRLRPPRLPRPRPRPSNHPRP | -1.15 |
| RRIRGRPPRLPRPRPRPNPCPRP | 0.102 |
| RRIRERPPRLPRPRPRPYHIPRP | -0.212 |
| RRIRYRPPRLPRPRPRPQCPPRP | -0.15 |
| RRIRRRPPRLPRPRPRPGARPRP | 0.507 |
| RRIRFRPPRLPRPRPRPCNRPRP | -0.111 |
